Measured values published in patent US20260055205A1 (published 2026).

Key:
human CD3 epsilon = target: T1, human CD3 epsilon (human, UniProt P07766 23-126, limits assumed); test: Octet, crude lysate
T1 construct: also called huCD3e
Excerpt: To achieve this, Pool 1 was created, which included 74 paTCE molecules, each containing PSMA.5 and one of the 74 CD3.23 mutation variants. Single mutations were chosen based on analyses including CD3.23 PTE score analysis (using internal PTE algorithm v12) and structural analysis. Structural considerations included: possible contact disruption, anticipated steric clashes, side chain charge maintenance and possible pockets filling. Stability and affinity of the individually expressed molecules in the form of crude lysate was evaluated by Octet (ForteBio).

human PSMA = target: T2, human PSMA (human, UniProt Q04609 44-750, limits assumed); test: binding screen
T2 construct: also called huPSMA; hPSMA
T2 sequence (Q04609 44-750 limits assumed): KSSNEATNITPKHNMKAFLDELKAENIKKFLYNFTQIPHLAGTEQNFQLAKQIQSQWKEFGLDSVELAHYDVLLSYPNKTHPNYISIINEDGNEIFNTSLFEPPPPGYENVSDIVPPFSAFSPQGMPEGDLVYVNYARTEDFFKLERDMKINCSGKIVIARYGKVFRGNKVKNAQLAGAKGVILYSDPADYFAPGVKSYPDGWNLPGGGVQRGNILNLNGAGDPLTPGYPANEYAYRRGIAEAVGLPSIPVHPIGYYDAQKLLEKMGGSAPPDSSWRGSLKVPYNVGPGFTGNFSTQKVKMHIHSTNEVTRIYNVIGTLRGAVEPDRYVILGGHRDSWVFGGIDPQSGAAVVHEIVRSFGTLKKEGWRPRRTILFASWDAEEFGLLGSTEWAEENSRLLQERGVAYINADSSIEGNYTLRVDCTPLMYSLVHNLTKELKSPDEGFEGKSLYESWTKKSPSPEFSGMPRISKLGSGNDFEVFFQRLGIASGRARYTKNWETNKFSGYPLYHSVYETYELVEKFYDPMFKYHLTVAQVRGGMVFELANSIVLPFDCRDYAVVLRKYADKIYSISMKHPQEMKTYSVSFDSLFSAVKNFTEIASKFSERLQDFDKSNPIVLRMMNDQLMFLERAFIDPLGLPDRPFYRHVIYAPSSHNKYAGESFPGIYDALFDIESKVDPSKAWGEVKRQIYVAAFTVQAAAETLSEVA

T1 sequence (P07766 23-126 limits assumed): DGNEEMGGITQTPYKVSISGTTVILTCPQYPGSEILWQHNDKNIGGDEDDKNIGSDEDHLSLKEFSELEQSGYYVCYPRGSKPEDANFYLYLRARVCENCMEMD

| Binder | Kd (human CD3 epsilon) [nM] | Kd (human PSMA) [nM] | other results |
| --- | --- | --- | --- |
| CD3.23-D (bispecific antibody, V domains shown, paTCE with PSMA.5; also called AC3366; WT) VH: EVQLLESGGGIVQPGGSLKLSCAASGFTFNTYAMNWVRQAPGKGLEWVARIRSKYNNYATYYADSVKDRFTISRDDSKNTVYLQMNNLKTEDTAVYYCVRHENFGNSYVSWFAHWGQGTLVTVSS VL: ELVVTQEPSLTVSPGGTVTLTCRSSNGAVTSSNYANWVQQKPGQAPRGLIGGTNKRAPGTPARFSGSLLGGKAALTLSGVQPEDEAVYYCALWYPNLWVFGGGTKLTVL | 14 |  |  |
| CD3.41 (bispecific antibody, V domains shown, paTCE with PSMA.5; also called AC3370; V48E) VH: EVQLLESGGGIVQPGGSLKLSCAASGFTFNTYAMNWVRQAPGKGLEWEARIRSKYNNYATYYADSVKDRFTISRDDSKNTVYLQMNNLKTEDTAVYYCVRHENFGNSYVSWFAHWGQGTLVTVSS VL: ELVVTQEPSLTVSPGGTVTLTCRSSNGAVTSSNYANWVQQKPGQAPRGLIGGTNKRAPGTPARFSGSLLGGKAALTLSGVQPEDEAVYYCALWYPNLWVFGGGTKLTVL | 165 |  |  |
| CD3.45 (bispecific antibody, V domains shown, paTCE with PSMA.5; also called AC3374; V48W) VH: EVQLLESGGGIVQPGGSLKLSCAASGFTFNTYAMNWVRQAPGKGLEWWARIRSKYNNYATYYADSVKDRFTISRDDSKNTVYLQMNNLKTEDTAVYYCVRHENFGNSYVSWFAHWGQGTLVTVSS VL: ELVVTQEPSLTVSPGGTVTLTCRSSNGAVTSSNYANWVQQKPGQAPRGLIGGTNKRAPGTPARFSGSLLGGKAALTLSGVQPEDEAVYYCALWYPNLWVFGGGTKLTVL | 34300 |  |  |
| CD3.42 (bispecific antibody, V domains shown, paTCE with PSMA.5; also called AC3371; V48G) VH: EVQLLESGGGIVQPGGSLKLSCAASGFTFNTYAMNWVRQAPGKGLEWGARIRSKYNNYATYYADSVKDRFTISRDDSKNTVYLQMNNLKTEDTAVYYCVRHENFGNSYVSWFAHWGQGTLVTVSS VL: ELVVTQEPSLTVSPGGTVTLTCRSSNGAVTSSNYANWVQQKPGQAPRGLIGGTNKRAPGTPARFSGSLLGGKAALTLSGVQPEDEAVYYCALWYPNLWVFGGGTKLTVL | 71.5 |  |  |
| CD3.39 (bispecific antibody, V domains shown, paTCE with PSMA.5; also called AC3368; W47E) VH: EVQLLESGGGIVQPGGSLKLSCAASGFTFNTYAMNWVRQAPGKGLEEVARIRSKYNNYATYYADSVKDRFTISRDDSKNTVYLQMNNLKTEDTAVYYCVRHENFGNSYVSWFAHWGQGTLVTVSS VL: ELVVTQEPSLTVSPGGTVTLTCRSSNGAVTSSNYANWVQQKPGQAPRGLIGGTNKRAPGTPARFSGSLLGGKAALTLSGVQPEDEAVYYCALWYPNLWVFGGGTKLTVL | 18.1 |  |  |
| CD3.48 (bispecific antibody, V domains shown, paTCE with PSMA.5; also called AC3377; A49G) VH: EVQLLESGGGIVQPGGSLKLSCAASGFTFNTYAMNWVRQAPGKGLEWVGRIRSKYNNYATYYADSVKDRFTISRDDSKNTVYLQMNNLKTEDTAVYYCVRHENFGNSYVSWFAHWGQGTLVTVSS VL: ELVVTQEPSLTVSPGGTVTLTCRSSNGAVTSSNYANWVQQKPGQAPRGLIGGTNKRAPGTPARFSGSLLGGKAALTLSGVQPEDEAVYYCALWYPNLWVFGGGTKLTVL | 4.5 |  |  |
| CD3.40 (bispecific antibody, V domains shown, paTCE with PSMA.5; also called AC3369; V48A) VH: EVQLLESGGGIVQPGGSLKLSCAASGFTFNTYAMNWVRQAPGKGLEWAARIRSKYNNYATYYADSVKDRFTISRDDSKNTVYLQMNNLKTEDTAVYYCVRHENFGNSYVSWFAHWGQGTLVTVSS VL: ELVVTQEPSLTVSPGGTVTLTCRSSNGAVTSSNYANWVQQKPGQAPRGLIGGTNKRAPGTPARFSGSLLGGKAALTLSGVQPEDEAVYYCALWYPNLWVFGGGTKLTVL | 8.3 |  |  |
| CD3.44 (bispecific antibody, V domains shown, paTCE with PSMA.5; also called AC3373; V48T) VH: EVQLLESGGGIVQPGGSLKLSCAASGFTFNTYAMNWVRQAPGKGLEWTARIRSKYNNYATYYADSVKDRFTISRDDSKNTVYLQMNNLKTEDTAVYYCVRHENFGNSYVSWFAHWGQGTLVTVSS VL: ELVVTQEPSLTVSPGGTVTLTCRSSNGAVTSSNYANWVQQKPGQAPRGLIGGTNKRAPGTPARFSGSLLGGKAALTLSGVQPEDEAVYYCALWYPNLWVFGGGTKLTVL | 5.7 |  |  |
| CD3.43 (bispecific antibody, V domains shown, paTCE with PSMA.5; also called AC3372; V48S) VH: EVQLLESGGGIVQPGGSLKLSCAASGFTFNTYAMNWVRQAPGKGLEWSARIRSKYNNYATYYADSVKDRFTISRDDSKNTVYLQMNNLKTEDTAVYYCVRHENFGNSYVSWFAHWGQGTLVTVSS VL: ELVVTQEPSLTVSPGGTVTLTCRSSNGAVTSSNYANWVQQKPGQAPRGLIGGTNKRAPGTPARFSGSLLGGKAALTLSGVQPEDEAVYYCALWYPNLWVFGGGTKLTVL | 11.2 |  |  |
| CD3.38 (bispecific antibody, V domains shown, paTCE with PSMA.5; also called AC3367; W47D) VH: EVQLLESGGGIVQPGGSLKLSCAASGFTFNTYAMNWVRQAPGKGLEDVARIRSKYNNYATYYADSVKDRFTISRDDSKNTVYLQMNNLKTEDTAVYYCVRHENFGNSYVSWFAHWGQGTLVTVSS VL: ELVVTQEPSLTVSPGGTVTLTCRSSNGAVTSSNYANWVQQKPGQAPRGLIGGTNKRAPGTPARFSGSLLGGKAALTLSGVQPEDEAVYYCALWYPNLWVFGGGTKLTVL | 40.2 |  |  |
| CD3.54 (bispecific antibody, V domains shown, paTCE with PSMA.5; also called AC3383; I51A) VH: EVQLLESGGGIVQPGGSLKLSCAASGFTFNTYAMNWVRQAPGKGLEWVARARSKYNNYATYYADSVKDRFTISRDDSKNTVYLQMNNLKTEDTAVYYCVRHENFGNSYVSWFAHWGQGTLVTVSS VL: ELVVTQEPSLTVSPGGTVTLTCRSSNGAVTSSNYANWVQQKPGQAPRGLIGGTNKRAPGTPARFSGSLLGGKAALTLSGVQPEDEAVYYCALWYPNLWVFGGGTKLTVL | 1180 |  |  |
| PSMA.343 (bispecific antibody, V domains shown, TCE with CD3.23; also called AC3745) VH: QVQLVESGGGVVQPGRSLRLSCAASGRTFGIYVMGWFRQAPGKEREFVGAISWSGSNRKVSDSVKGRFTISRDNSKNTLYLQMNSLRAEDTAVTFCAGSNKLYGRTWYDFNESDYWGQGTQVTVSS |  |  | binding result (human PSMA): no binding |
| PSMA.360 (bispecific antibody, V domains shown, TCE with CD3.23; also called AC3762) VH: QVQLVESGGGVVQPGRSLRLSCAASGRTFGIYVWGWFRQAPGKEREFVGAMSWSGSNRKVSDSVKGRFTISRDNSKNTLYLQMNSLRAEDTAVNYCAGSNKLYGRTWYDFNESDYWGQGTQVTVSS |  |  | binding result (human PSMA): no binding |
| PSMA.352 (bispecific antibody, V domains shown, TCE with CD3.23; also called AC3754) VH: QVQLVESGGGVVQPGRSLRLSCAASGRTFGIYVWGWFRQAPGKEREFVGAMSWSGSNRKVSDSVKGRFTISRDNSKNTLYLQMNSLRAEDTAVDFCAASNKLYGRTWYDFNESDYWGQGTQVTVSS |  |  | binding result (human PSMA): no binding |
| PSMA.346 (bispecific antibody, V domains shown, TCE with CD3.23; also called AC3748) VH: QVQLVESGGGVVQPGRSLRLSCAASGRTFGIYVWGWFRQAPGKEREFVGAMSWSGSNRKVSDSVKGRFTISRDNSKNTLYLQMNSLRAEDTAVDYCAASNKLYGRTWYDFNESDYWGQGTQVTVSS |  |  | binding result (human PSMA): no binding |
| PSMA.347 (bispecific antibody, V domains shown, TCE with CD3.23; also called AC3749) VH: QVQLVESGGGVVQPGRSLRLSCAASGRTFGIYVWGWFRQAPGKEREFVGAMSWSGSNRKVSDSVKGRFTISRDNSKNTLYLQMNSLRAEDTAVYYCGASNKLYGRTWYDFNESDYWGQGTQVTVSS |  | 7.3 |  |
| PSMA.345 (bispecific antibody, V domains shown, TCE with CD3.23; also called AC3747) VH: QVQLVESGGGVVQPGRSLRLSCAASGRTFGIYVWGWFRQAPGKEREFVGAMSWSGSNRKVSDSVKGRFTISRDNSKNTLYLQMNSLRAEDTAVYYCGGSNKLYGRTWYDFNESDYWGQGTQVTVSS |  | 6.1 |  |
| PSMA.359 (bispecific antibody, V domains shown, TCE with CD3.23; also called AC3761) VH: QVQLVESGGGVVQPGRSLRLSCAASGRTFGIYVWGWFRQAPGKEREFVGAMSWSGSNRKVSDSVKGRFTISRDNSKNTLYLQMNSLRAEDTAVRYCAGSNKLYGRTWYDFNESDYWGQGTQVTVSS |  |  | binding result (human PSMA): no binding |

More lines, main results first:

| Kd (human CD3 epsilon) [nM] | Kd (human PSMA) [nM] | Binder | other results |
| --- | --- | --- | --- |
|  | 18 | PSMA.349 (bispecific antibody, V domains shown, TCE with CD3.23; also called AC3751) VH: QVQLVESGGGVVQPGRSLRLSCAASGRTFGIYVWGWFRQAPGKEREFVGAMSWSGSNRKVSDSVKGRFTISRDNSKNTLYLQMNSLRAEDTAVYYCAASNKDYGRTWYDFNESDYWGQGTQVTVSS |  |
|  | 32.6 | PSMA.351 (bispecific antibody, V domains shown, TCE with CD3.23; also called AC3753) VH: QVQLVESGGGVVQPGRSLRLSCAASGRTFGIYVWGWFRQAPGKEREFVGAMSWSGSNRKVSDSVKGRFTISRDNSKNTLYLQMNSLRAEDTAVYYCAASNKGYGRTWYDFNESDYWGQGTQVTVSS |  |
|  | 24.6 | PSMA.357 (bispecific antibody, V domains shown, TCE with CD3.23; also called AC3759) VH: QVQLVESGGGVVQPGRSLRLSCAASGRTFGIYVWGWFRQAPGKEREFVGAMSWSGSNRKVSDSVKGRFTISRDNSKNTLYLQMNSLRAEDTAVYFCAASNKGYGRTWYDFNESDYWGQGTQVTVSS |  |
|  | 17.8 | PSMA.355 (bispecific antibody, V domains shown, TCE with CD3.23; also called AC3757) VH: QVQLVESGGGVVQPGRSLRLSCAASGRTFGIYVWGWFRQAPGKEREFVGAMSWSGSNRKVSDSVKGRFTISRDNSKNTLYLQMNSLRAEDTAVYFCAASNKDYGRTWYDFNESDYWGQGTQVTVSS |  |
|  | 7.4 | PSMA.350 (bispecific antibody, V domains shown, TCE with CD3.23; also called AC3752) VH: QVQLVESGGGVVQPGRSLRLSCAASGRTFGIYVWGWFRQAPGKEREFVGAMSWSGSNRKVSDSVKGRFTISRDNSKNTLYLQMNSLRAEDTAVYYCAASNKEYGRTWYDFNESDYWGQGTQVTVSS |  |
|  | 5.1 | PSMA.353 (bispecific antibody, V domains shown, TCE with CD3.23; also called AC3755) VH: QVQLVESGGGVVQPGRSLRLSCAASGRTFGIYVWGWFRQAPGKEREFVGAMSWSGSNRKVSDSVKGRFTISRDNSKNTLYLQMNSLRAEDTAVYFCGASNKLYGRTWYDFNESDYWGQGTQVTVSS |  |
|  | 7.8 | PSMA.356 (bispecific antibody, V domains shown, TCE with CD3.23; also called AC3758) VH: QVQLVESGGGVVQPGRSLRLSCAASGRTFGIYVWGWFRQAPGKEREFVGAMSWSGSNRKVSDSVKGRFTISRDNSKNTLYLQMNSLRAEDTAVYFCAASNKEYGRTWYDFNESDYWGQGTQVTVSS |  |
|  | 6.5 | PSMA.358 (bispecific antibody, V domains shown, TCE with CD3.23; also called AC3760) VH: QVQLVESGGGVVQPGRSLRLSCAASGRTFGIYVWGWFRQAPGKEREFVGAMSWSGSNRKVSDSVKGRFTISRDNSKNTLYLQMNSLRAEDTAVYFCGGSNKLYGRTWYDFNESDYWGQGTQVTVSS |  |
